Assay: yeast display, Sf9 membrane polyspecificity reagent, FACS + sequencing; frameworks hold sequencing errors
In short: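 Nanobodies came from a synthetic yeast display library in Saccharomyces cerevisiae BJ5465, induced with galactose for 36–48 hours and stained for 1 hour at 4 °C with 10% biotinylated, detergent-solubilized Sf9 membrane reagent. Cells were enriched on streptavidin microbeads and then FACS-sorted, with low and high (top ~1%) gates set on anti-HA fluorescence for expression and streptavidin fluorescence for reagent binding. Each polyreactivity label reflects the gate a clone came from. Genes were amplified by colony PCR, sequenced by MiSeq 2 × 250 and filtered by CDR length.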

Sequence | polyreactivity (PSR sort gate)
QVQLVESGGGLDQAGGSLRLSCAASGFIFRYYAMGWYRQAPGKERELVAAISRNGGSTYYADSVKGRFTISRDIAKNTVYLQMNSLKPEDTAVYYCAALTGRERYDYWGQGTQVTVSS | high polyreactivity
QVQLVESGGGLDQAGGSLRLSCAASGFIFVRNAMGWYRQPPGKERELVAAITRSGGSTSYADSVKGRFTISRDNAKNTVYLQMNSLKPEDTAVYYCASERYPWQLYWSYYGYYYWGQGTQVTVSS | high polyreactivity
QVQLVESGGGLDQAGGSLRLSCAASGFTFAVYAMGWYRQAPAKERELVAAISRSGTRTYYADSVKGRFTISRDNAKNTVYLQMNSLKREDNAVYYCAADNYRHGYEYWGLGTQVTVSS | high polyreactivity
QVQLVESGGGLDQAGGSLRLSCAASGFTFPGNAMGWYRQSPGKEREFVAGISRSGDSTYYADSVKGRFTISRDNAKNTVYLQMNSLKPEDTAVYYCAARNPYRYFYYYEYWGQGTQVTVSS | low polyreactivity
QVQLVESGGGLDQAGGSLRLSCAASGFTFRHNTMGGYRQAPGKEREMVAAISIGGRTYYADSVKGRFTISRDNAKNTVYLQMNSLKPEDTAVYYCAKLSRGQSPGYDYWGQGTQVTVSS | high polyreactivity
QVQLVESGGGLDQAGGSLRLSCAASGFTFSYNAMGWYRQAPGKERELVASISWRGGGTYYADSVKGRFTISRDNAKNTVYLQMNSLKPEDTAVYYCNAGLTDYIGDPSEVDYWGQGTQVTVSS | low polyreactivity
QVQLVESGGGLDQAGGSLRLSCAASGGILVIYAMGWYRQEPGKERELVAAINVSGGSTYYADSVKGRFTISRDNAKNTVYLQMNSLKPEDTAVYYCAALGPYLDYGVQYGYWGQGTQVTVSS | low polyreactivity
QVQLVESGGGLDQAGGSLRLSCAASGGTFARYAMGWYRQAPGKERELVAAISARGGSTYYADSVKGRFTISRDNAKNTVYLQMNSLKPEDTAVYYCAAKKWYDRYGFDYWGQGTQVTVSS | high polyreactivity
QVQLVESGGGLDQAGGSLRLSCAASGGTFGLYAMGWYRQAPGKERELVAAITWSDSSTYYADSVKGRFTISRDNAKNTVYFQMNSLKPEDTAVYYCNAVRSTSYGSYNYWGQGTQVTVSS | low polyreactivity
QVQLVESGGGLDQAGGSLRLSCAASGGTFYYYAMGWYRQPPGKERELVAAITKNGGSTYYADSVKGRFTNSRDNAKNTVYLQMNRLKPEDTAVYSCAKATVAYGWWRYNYWGQGTQVTVSS | high polyreactivity
QVQLVESGGGLDQAGGSLRLSCAASGITFGRNTMGWYRQAPGQERELVAAIDSGGNTYADSVKGRFTISRDNAKNTVYLQMNCLKPEDTAVYYCAVDGGEFSSYGYWGQGTQVTVSS | low polyreactivity
QVQLVESGGGLDQAGGSLRLSCAASGITFPAYAMGLYRQAPGKEREWVAAITSGSSTNYADSVKGRFTISRDNAKNTVYLHLNSLKPEDTAVYYCAAQASYWGYRSGNRYGYWGQGTQVTVSS | high polyreactivity
QVQLVESGGGLDQAGGSLRLSCAASGITFVRYAMGWYRQAPGKERELVAAISWSGGSTYYADSVKGRFTISRDNEKNTVYLQMNSLKPEDTAVYYCAAQHDVRYDYWGQGTQVTVSS | low polyreactivity
QVQLVESGGGLDQAGGSLRLSCAASGLIFRRYAMGWYRQAPGKERELVAAISRSGGSTYYADSVKGRFTISRDNAKNTVYLQMNSLKPEDTAVYYCAARTRSDNSYHGGEYWGQGTQVTVSS | high polyreactivity
QVQLVESGGGLDQAGGSLRLSCAASGRIFEYNAMGWYRQAPGKERELVAAINYNDVSTYYADSVKGRFTISRDNAKNTVFFQINSLKPEDTAVYYCNVYGDKWSAAYGEYVYWGQGTQVTVSS | low polyreactivity
QVQLVESGGGLDQAGGSLRLSCAASGRIFFAYAMGWYRQAPGKEREFVAAISDNDGSTFYADSVKGRFTISRDNAKNPVYLQMNSLKPEDTAVYYCNADLGYVYDYWGQGTQVTVSS | low polyreactivity

Sequence | polyreactivity (PSR sort gate)
QVQLVESGGGLDQAGGSLRLSCAASGRIFRFYAMGWYRQATGKERELVAAISSRGGSTYYADSVKGRFTISRDNAKNTFYLQMNSLKPEDTAVYYCAKKTWRDYSYNYWGQGTQVTVSS | high polyreactivity
QVQLVESGGGLDQAGGSLRLSCAASGRIFRRYAMGWYRQAPGKERELVAAISTRGGSTYYADSVKGRFTISRDHAKNTVYLQMNSLKPEDTAVYYCNAEARSRRYRYDYWGQGTQVTVSS | high polyreactivity
QVQLVESGGGLDQAGGSLRLSCAASGRIFTYNAMGWYRPAPGKERELVAVISRRGGSTYYADSVKGRFTISRDNAKNTVYLQMNSLKPEDTAVYYCAAGGSVFYDNRYDYWGQGTQVTVSS | low polyreactivity
QVQLVESGGGLDQAGGSLRLSCAASGRIFVGYARGWYRQAPVKERELVASITGRGTSTYYADSVKGRFTISRDNAKNTVYLQMNSLKPEDTAVYYCNALYRKYRNQWYISNYGYYYWGQGTQVTVSS | low polyreactivity
QVQLVESGGGLDQAGGSLRLSCAASGRIFVIYAMGWYRQAPGKERELVAVINDDGSTNYADSVKGRFTISRDNAKNTVYLQMNSLKPEDTAVYYCAAESARYLTFEFDYWGQSTQVTVSS | low polyreactivity
QVQLVESGGGLDQAGGSLRLSCAASGRIFVPNAMGWYRQAPGKERELVAAINWGGGSTYYADSVKGRFTISRDNAKNTVYLQMNSLKPEDTAVYYCAADHPYTIGVLPNQQFDYWGQGPQVTVSS | low polyreactivity
QVQLVESGGGLDQAGGSLRLSCAASGRILRYYTMGWYRQAPGKERELVAAISRSGGGTYYADSVKGRFTISRDNAKNTVYLQMNSLKPEDTAVYYCAKQTHQKAYDYWGQGTQVTVSS | high polyreactivity
QVQLVESGGGLDQAGGSLRLSCAASGRTFAHNAMGWYRQAPGKERELVAAITWSGGTTYYADSVKGRFTISRDNAKNTVYLQMNSLKPEDTAVYYCNTYSYLADPKYDYWGQGTQVTVSS | low polyreactivity
QVQLVESGGGLDQAGGSLRLSCAASGRTFRYYAMGWYRQAPWKESDLVATITGSGGSTYYADSVKGRFTISRDNSKNTVYLQMYSLKPEDTAVYYCNARKVRYPYRWYDYWGQGTQVTVSS | high polyreactivity
QVQLVESGGGLDQAGGSLRLSCAASGRTFWAPYTMGWYRQAPWKERELVAAISKSTTRTYYADSVKGRFTISRDNAKNTVYLQMTSLKPEDTAVYYCAVDSLYASRWVDYWGQGTQVTVSS | high polyreactivity
QVQLVESGGGLDQAGGSLRLSCAASGRTFYRYAMGWYRQEPGKERELVATISRSGGSTYYADSVKGRFTISRDNAKNTVYLQMNSLKPEDTAVYYCNAEGYPWGFYTYDYWGQGTQVTVSS | low polyreactivity
QVQLVESGGGLDQAGGSLRLSCAASGSIFANNAMGWYRQAPGKERELVATIRSGGTTNYADSVKGRFTISRDNAKNTVYLQMNSLKPEDTAVYYCAAETVSYYSKYDYWGQGTQVTVSS | low polyreactivity
QVQLVESGGGLDQAGGSLRLSCAASGSIFAPNAMGWYRQAPGKERELVAAITSSGGRTYYADSVKGRFTISRDNAKNTVYLQMNSLKPEDTAVYYCNACYYVRRDYDYWGQGTQVTVSS | low polyreactivity
QVQLVESGGGLDQAGGSLRLSCAASGSIFEKYAMGWYRQAPGKERELVAGISRSGGSTYYADSVKGRFTISRDNAKNTVYLQMNSLKLEDTAFYFCAARYTRYGSFYGFGYWGQGTQVTVSS | high polyreactivity
QVQLVESGGGLDQAGGSLRLSCAASGSIFFYYAMVWYRQAPGKERELVADITSGGTTYYADSVKGRFTISRDNAKNTVYLQLNSLKPEDTAVYYCNACLYPGQRPDYTNYSSDYLGQGTQVTVSS | low polyreactivity
QVQLVESGGGLDQAGGSLRLSCAASGSIFGVNDMVWNRQAPGKERELVAAISGGGSTYYADSVKGRFTISRDNAKNTVYLQMNSLKPEDTAVYYCARRRTKSYTRKYDYWGQGTQVTVSS | low polyreactivity

From the nanobody polyreactivity screen of Harvey et al. (2022)
